Entries after “also recorded” stand apart in the source; their conditions may differ.
Experiments:
Assay type in all cases: cell-based
[1] = system: Human ovarian cancer ascites cells; assay: Tumor sphere assay, ALDH+ cell percentages; details: EGFL6 treatment
From the text: It has been shown that aldehyde dehydrogenase enzymatic activity (ALDH) is an excellent marker of ovarian CSCs in SKOV3 cells and primary patient samples (see, e.g., Silva, I. A., et al. Cancer Res (2011); Landen, C. N., Jr., et al. Mol Cancer Ther 9, 3186-3199 (2010); Steg, A. D., et al. Clin Cancer Res 18, 869-881 (2012); Kryczek, I., et al. Int J Cancer 130, 29-39 (2012); Deng, S., et al. PLoS ONE 5, e10277 (2010)). The impact of EGFL6 treatment on the percentage of ALDH^+ CSCs in vitro was next assessed. […] However, given the increase in total cell numbers, the absolute ALDH^+ CSC number remained unchanged (FIG. 3Aiii). […] Human ovarian cancer ascites cells were also treated with EGFL6 in a tumor sphere assay. Once again, treatment with EGLF6 was associated with a reduction in ALDH^+ cell percentages in tumor spheres (FIG. 3B).
Sphere culture was performed as previously described (see, e.g., Silva, I. A., et al. Cancer Res (2011)). Briefly, single cell suspensions were plated in triplicate in ultra-low attachment plates (Corning, Acton, Mass., USA) in serum-free MEBM-2 (Lonza). Cells were plated at the indicated density and from 1,000-10,000 cells/ml in subsequent passage. Sphere formation was assessed 2 weeks after seeding cells.

[2] = system: ALDH+ and ALDH(−) SKOV3 cells; assay: Single cell microfluidic culture, cell division type
Method: To determine if EGFL6 is promoting asymmetric division, a novel microfluidic culture device was used which allows the isolation, confirmation, and culture of individual cells. ALDH^+ and ALDH^(−) SKOV3 cells were FACS-sorted into separate microfluidic devices (see, e.g., Chung, J., Kim, Y. J. & Yoon, E. Appl Phys Lett 98, 123701 (2011)), and confirmed ALDH expression with fluorescent microscopy (FIG. 3Di). Cells were then mock-treated or treated with EGFL6. After 48 hours, live cells were stained using ALDEFLUOR and re-imaged using fluorescent microscopy (FIG. 3Dii, right panels). Cell divisions, type of daughter cell (ALDH^(−) or ALDH^+), and total cell number were assessed. […] Production of ALDH^+ daughter cells from ALDH^(−) cells was not observed. […] This was associated with a statistically significant increase in total cell numbers; 6.5 versus 3.7 average cells/well and total 325 vs. 185 total cells/50 captured cells in EGFL6 treated and control ALDH^(+) cells respectively.

[3] = system: phosphorylation of SHP2, ERK, FAK and SRC in SKOV3 cells; assay: Western blot of EGFL6 mediated signal activation
Method: Lastly, EGFL6 mediated signal activation was evaluated. Integrin signaling has been reported to induce the […] of FAK, SRC and SHP2 among others. […] Phosphorylation of all of these proteins could be blocked with Echistatin.
Cellular signaling changes associated with EGFL6 was next examined. […] EGFL6 treatment was associated with increased p-SHP2 levels specifically in ALDH^+ cells (FIG. 4Ei). […] SHP2 phosphorylation could be blocked with Echistatin (FIG. 4Eiii) or an EGFL6-blocking antibody. SHP2 phosphorylation was associated with increased p-ERK levels (4Ei-iii).
SKOV3, A2008, and A2780 were maintained in RPMI-1640, supplemented with 10% FBS with 1% Penicillin/Streptomycin, and cultured in humidified atmosphere of 5% CO2 at 37° C. For all in vitro cell culture experiments, isolated cells were allow to recover overnight following FACS, prior to treatment. Infantile Hemangioma Stem cells were maintained in EBM-2 medium with growth factor supplement cocktails in culture plates coated with fibronectin. For Echistatin and EGFL6 treatment, cells were pretreated with Echistatin (Sigma, 100 nM) for 24 hours prior to EGFL6 treatment. All transfections were performed using FuGene6 reagent (Promega) per company protocol.
EGFL6 monoclonal antibody producing hybridoma cells were maintained in RPMI medium supplemented with 10% FBS. For antibody purification, the cells were cultured in reduced FBS (5%). Culture supernatant was collected and cell debris was removed by centrifugation. EGFL6 antibody was pulled down using Protein G Agarose heeds, Fast Flow (Millipore), washed and eluded with 50 mM glycine PH.2.7. Antibody solution was immediately neutralized to PH 7.2-7.4 with Tris (Ph 9.0, final concentration 25 mM). NaCl was added to final concentration of 150 mM. EGFL6 antibody was applied at 5 μg/ml for in vitro cell treatment and 50 μg/mouse for in vivo treatment.

cellular migration [4] = assay: In vitro scratch test wound healing assay; details: EGFL6 treated cells
cellular migration [5] = assay: Transwell migration assay with EGFL6 protein as chemoattractant
ALDH+ and ALDH− cells = assay: Microfluidics device migration of individual cells in an EGFL6 gradient
From the text: EGF factors have been reported to enhance the migration and invasion of various cell populations. The impact of EGFL6 on cellular migration was therefore assessed. […] Finally, a novel microfluidics device was used to determine the impact of EGFL6 on the migration of individual cells. To more specifically assess the impact on ovarian CSC versus progenitors, ALDH+ and ALDH− cells were sorted and loaded into individual channels of a microfluidics device in which migration could be directly monitored. EGFL6 was added to a reservoir at one side of the device to create a gradient of expression. EGFL6 had no impact on the migration of ALDH(−) cells.

[6] = ALDH+ SKOV3 cells, EGFL6 treated

B1: EGFL6: recombinant EGFL6-flag protein from transfected HEK293 cells, used purified or as 72 hr supernatant (protein)
chain: NAASARHHGLLASARQPGVCHYGTKLACCYGWRRNSKGVCEATCEPGCKFGECVGPNKCRCFPGYTGKTCSQDVNECGMKPRPCQHRCVNTHGSYKCFCLSGHMLMPDATCVNSRTCAMINCQYSCEDTEEGPQCLCPSSGLRLAPNGRDCLDIDECASGKVICPYNRRCVNTFGSYYCKCHIGFELQYISGRYDCIDINECTMDSHTCSHHANCFNTQGSFKCKCKQGYKGNGLRCSAIPENSVKEVLRAPGTIKDRIKKLLAHKNSMKKKAKIKNVTPEPTRTPTPKVNLQPFNYEEIVSRGGNSHGGKKGNEEKMKEGLEDEKREEKALKNDIEERSLRGDVFFPKVNEAGEFGLILVQRKALTSKLEHKDLNISVDCSFNHGICDWKQDREDDFDWNPADRDNAIGFYMAVPALAGHKKDIGRLKLLLPDLQPQSNFCLLFDYRLAGDKVGKLRVFVKNSNNALAWEKTTSEDEKWKTGKIQLYQGTDATKSIIFEAERGKGKTGEIAVDGVLLVSGLCPDSLLSVDD
ALDH+ cell percentages in tumor spheres [1]: reduction | number or type of cell divisions of ALDH(−) cells ([2]; ALDH(−) SKOV3 cells, 48 hours): no significant impact | increase in the percentage of ALDH+ cells undergoing asymmetric division ([2]; ALDH+ SKOV3 cells, 48 hours, vs mock-treated): 2 fold | average cells/well [2, 6]: 6.5 cells/well | total cells/50 captured cells [2, 6]: 325 total cells/50 captured cells | p-FAK levels ([3]; EGFL6 treated SKOV3 cells): modest increase | p-SRC levels ([3]; EGFL6 treated SKOV3 cells): modest increase | p-SHP2 levels ([3]; treatment of ALDH+ SKOV3 cells): further increase; also recorded: increased | p-ERK levels ([3]; treatment of ALDH+ and ALDH(−) cells): increase p-ERK | increase in the rate of wound closure (cellular migration [4]): 40% | cellular migration in transwell assay (cellular migration [5]): increased cellular migration | migration of ALDH(−) cells (ALDH+ and ALDH− cells): no impact | migration of ALDH+ cells (ALDH+ and ALDH− cells): robust migration
